Numbering of substitutions follows the chain as printed.
T1: HuCDCP1-C (human, UniProt Q9H5V8 30-667)
T1 construct: range 30-667; expressed in HEK-293T, purified by Fc/his tag; also called human CDCP1-C; full-length extracellular domain of human CDCP1; not shown: Fc or his tag
T1 sequence (looked up): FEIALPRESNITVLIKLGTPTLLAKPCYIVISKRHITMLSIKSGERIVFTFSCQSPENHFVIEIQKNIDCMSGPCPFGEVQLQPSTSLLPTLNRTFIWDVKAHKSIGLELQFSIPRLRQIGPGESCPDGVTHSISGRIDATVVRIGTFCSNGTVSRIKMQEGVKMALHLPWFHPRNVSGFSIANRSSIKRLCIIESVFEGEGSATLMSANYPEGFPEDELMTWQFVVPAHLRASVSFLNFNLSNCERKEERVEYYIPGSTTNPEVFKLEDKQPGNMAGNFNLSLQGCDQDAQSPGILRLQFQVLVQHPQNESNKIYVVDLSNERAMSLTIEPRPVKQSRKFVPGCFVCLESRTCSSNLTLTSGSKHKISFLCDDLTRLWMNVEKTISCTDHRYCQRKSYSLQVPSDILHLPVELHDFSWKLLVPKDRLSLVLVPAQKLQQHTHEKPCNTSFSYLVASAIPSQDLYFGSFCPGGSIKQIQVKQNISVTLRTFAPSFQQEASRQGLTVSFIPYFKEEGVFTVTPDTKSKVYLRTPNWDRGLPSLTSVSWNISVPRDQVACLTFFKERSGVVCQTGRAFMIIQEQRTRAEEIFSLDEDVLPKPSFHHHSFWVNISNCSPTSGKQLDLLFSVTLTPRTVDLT

T2: MsCDCP1 (mouse, UniProt Q5U462 30-666)
T2 construct: extracellular domain; also called mouse CDCP1; not shown: Fc or his tag
T2 sequence (looked up): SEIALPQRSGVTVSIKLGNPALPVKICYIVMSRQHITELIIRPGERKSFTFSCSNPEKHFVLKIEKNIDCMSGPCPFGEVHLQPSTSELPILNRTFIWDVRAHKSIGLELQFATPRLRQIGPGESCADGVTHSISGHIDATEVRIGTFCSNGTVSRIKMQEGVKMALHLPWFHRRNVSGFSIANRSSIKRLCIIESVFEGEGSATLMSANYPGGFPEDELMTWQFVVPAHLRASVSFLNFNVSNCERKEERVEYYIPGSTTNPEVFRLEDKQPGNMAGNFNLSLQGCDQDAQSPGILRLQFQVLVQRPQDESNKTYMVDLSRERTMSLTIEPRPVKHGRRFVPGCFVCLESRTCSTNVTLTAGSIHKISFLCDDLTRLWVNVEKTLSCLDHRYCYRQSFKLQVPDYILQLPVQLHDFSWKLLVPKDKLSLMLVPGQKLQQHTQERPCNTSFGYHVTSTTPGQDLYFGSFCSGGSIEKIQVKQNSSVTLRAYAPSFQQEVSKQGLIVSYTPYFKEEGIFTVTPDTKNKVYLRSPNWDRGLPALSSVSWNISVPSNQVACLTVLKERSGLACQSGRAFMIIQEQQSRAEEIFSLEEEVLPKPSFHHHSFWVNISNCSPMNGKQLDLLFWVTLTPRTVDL

B1: 1CP-121 (antibody, human IgG1, kappa, V domains shown)
VH: QVQLVQSGSELKKPGASVKVSCKASGYTLTDFSMHWVRQAPGQGLEWMGWINTETGAPTYADDFKGRFVLSLDTSVSTAYLQISSLKAEDTAVYYCSRGRDYDPHFDYWGQGTLVTVSS
VL: EIVLTQSPATLSLSPGERATLSCRASQSISDFLHWYQQKSGQSPRLLIKYASQSISGIPARFSGSGSGSDFTLTISSVEPEDFAVYYCQSAHSFPYTFGQGTKLEIKR
notes: humanized 8E5, human IgG1 kappa
B2: 1CP-124 (antibody, human IgG1, kappa, V domains shown)
VH: QVQLVQSGAEVKKPGASVKVSCKASGYNFISYWLHWVRQAPGQGLEWMGGIYPGNTDTTYNQKFKGRVTMTRDTSTSTVYMELSSLRSEDTAVYYCIRYDYDRGMDYWGQGTLVTVSS
VL: DIQMTQSPSSLSASVGDRVTITCRASEDIYYRLAWYQQKPGKAPKLLISGATALETGVPSRFSGSGSGKDYTFTISSLQPEDIATYYCQHYWNIPWTFGQGTKVEIKR
notes: humanized 3C11, human IgG1 kappa
B3: 1CP-125 (antibody, human IgG1, kappa, V domains shown)
VH: B2 VH with R72A
VL: B2 VL
notes: as for B2
B4: 1CP-128 (antibody, human IgG1, kappa, V domains shown)
VH: B2 VH
VL: B2 VL with F73L
notes: as for B2
B5: 1CP-129 (antibody, human IgG1, kappa, V domains shown)
VH: B2 VH with R72A
VL: B2 VL with F73L
notes: as for B2
B6: 1CP-152 (antibody, human IgG1, kappa, V domains shown)
VH: EVQLVESGGGLVQPGRSLRLSCTTSGLTFTHYHMSWVRQAPGKGLEWVAIIRNKAYGYTTDYSASVRGRFTISRDDSKSILYLQMNSLKTEDTAVYYCVREGGYGYDGTFAYWGQGTLVTVSS
VL: DIQMTQSPSSLSASVGDRVTITCRASESVDNYGISFMNWFQQKPGQAPKLLIYAASNQGSGVPSRFSGSGSGTDFTLTISSMQPEDFATYYCQQSKEVPRTFGGGTKVEIKR
notes: humanized 8C9, human IgG1 kappa
B7: 1CP-157 (antibody, human IgG1, kappa, V domains shown)
VH: B6 VH with L45P
VL: B6 VL with A47P
notes: as for B6

How the values were obtained:
[1] = molecular target: T1, HuCDCP1-C; experiment: SPR (Caterra), antigen immobilized
Protocol: (§1) The humanized anti-CDCP1 antibodies obtained from Example 11 were subjected to gene cloning, constructed into pTT5 expression vector for a small amount of expression in CHO cells (Expi-CHOS: Gibco A29127), and purified with an Fc affinity column (AT Protein A Diamond Plus. No. AA402312). Antibody purity was analyzed by HPLC and determined by Nanodrop. High-throughput affinity assay was carried out for a small amount of antibodies by Caterra.

[2] = molecular target: T2, MsCDCP1; experiment: SPR (Caterra), antigen immobilized
Protocol: as §1
Further, Partial anti-CDCP1 humanized antibodies were selected for expression, and then the affinity of the antibodies to the antigens Hu-CDCP1-A, Hu-CDCP1-B, Cyno-CDCP1, and Ms-CDCP1 was detected according to the above affinity detection method.

Binder	Kd [1] [nM]	koff [1] [s⁻¹]	kon [1] [M⁻¹ s⁻¹]	Kd [2] [nM]	binding result [2]
B1	≤ 0.0675	≤ 1e-05	148000	141	
B2	0.0993	1.47e-05	148000	274	
B3	0.144	2.17e-05	151000		no binding (tested: 150 nM highest concentration)
B4	≤ 0.0717	≤ 1e-05	139000		no binding (tested: 150 nM highest concentration)
B5	≤ 0.0623	≤ 1e-05	160000		no binding (tested: 150 nM highest concentration)
B6	4.09	0.000465	114000	745	
B7	3.14	0.000385	122000		no binding (tested: 150 nM highest concentration)

Reference: patent US20260250410A1 (SICHUAN HUIYU PHARMACEUTICAL, published 2026)
